Reference: doi:10.1101/803361

Biological target: Fluorescein-labelled Hsf1 peptide with the Hsc70 binding site in the TAD, residues 461-471 (human) (UniProt Q00613)
Assay: fluorescence polarisation

Fluorescein-labelled Hsf1 peptide with the Hsc70 binding site in the TAD, residues 461-471 (human), sequence (Q00613 whole entry, looked up, the tested form may be a part): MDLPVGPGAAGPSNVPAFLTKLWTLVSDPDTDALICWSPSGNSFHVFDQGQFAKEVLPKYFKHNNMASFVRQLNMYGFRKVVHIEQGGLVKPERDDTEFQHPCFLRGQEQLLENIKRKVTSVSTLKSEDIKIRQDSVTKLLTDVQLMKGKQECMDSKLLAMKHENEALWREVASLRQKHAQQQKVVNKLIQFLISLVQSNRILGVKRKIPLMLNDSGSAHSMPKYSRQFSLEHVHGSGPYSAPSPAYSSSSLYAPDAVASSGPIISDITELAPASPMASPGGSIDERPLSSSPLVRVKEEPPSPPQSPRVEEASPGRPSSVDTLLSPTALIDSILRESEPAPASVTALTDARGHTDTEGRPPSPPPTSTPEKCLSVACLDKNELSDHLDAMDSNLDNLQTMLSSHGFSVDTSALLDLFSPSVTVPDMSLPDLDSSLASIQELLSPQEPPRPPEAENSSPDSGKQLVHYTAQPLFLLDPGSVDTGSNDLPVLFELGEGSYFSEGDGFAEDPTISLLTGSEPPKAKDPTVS
Human Hsc70 (HSPA8), wild type, sequence (P11142 whole entry): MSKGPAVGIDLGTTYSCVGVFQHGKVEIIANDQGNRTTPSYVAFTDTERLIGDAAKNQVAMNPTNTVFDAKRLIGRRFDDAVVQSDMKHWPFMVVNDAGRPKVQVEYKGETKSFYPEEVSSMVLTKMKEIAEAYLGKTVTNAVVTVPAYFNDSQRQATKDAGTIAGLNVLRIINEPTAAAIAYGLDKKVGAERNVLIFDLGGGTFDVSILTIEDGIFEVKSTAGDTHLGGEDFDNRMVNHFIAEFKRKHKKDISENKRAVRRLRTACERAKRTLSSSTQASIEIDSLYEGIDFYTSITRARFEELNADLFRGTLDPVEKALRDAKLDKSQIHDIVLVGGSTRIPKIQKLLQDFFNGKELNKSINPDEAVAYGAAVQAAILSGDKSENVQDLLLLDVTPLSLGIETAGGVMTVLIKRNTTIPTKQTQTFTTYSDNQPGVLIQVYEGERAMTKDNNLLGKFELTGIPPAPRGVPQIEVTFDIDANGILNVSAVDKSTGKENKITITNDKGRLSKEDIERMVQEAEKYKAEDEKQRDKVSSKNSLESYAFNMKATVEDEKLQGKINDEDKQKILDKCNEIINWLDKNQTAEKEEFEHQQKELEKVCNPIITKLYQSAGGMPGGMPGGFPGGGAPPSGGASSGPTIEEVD

Which Kd does the source give for “Human Hsc70 (HSPA8), wild type (from UniProt P11142 1-646) (natural protein)” here?
The Kd was 5 to 30 µM.
